This is an account of results in article PMC5097833 (Chemico-biological interactions, 2015).

The target in this test is human butyrylcholinesterase (human (endogenous in plasma), UniProt P06276). Put plainly: pull-down.
human butyrylcholinesterase, sequence (P06276 29-602): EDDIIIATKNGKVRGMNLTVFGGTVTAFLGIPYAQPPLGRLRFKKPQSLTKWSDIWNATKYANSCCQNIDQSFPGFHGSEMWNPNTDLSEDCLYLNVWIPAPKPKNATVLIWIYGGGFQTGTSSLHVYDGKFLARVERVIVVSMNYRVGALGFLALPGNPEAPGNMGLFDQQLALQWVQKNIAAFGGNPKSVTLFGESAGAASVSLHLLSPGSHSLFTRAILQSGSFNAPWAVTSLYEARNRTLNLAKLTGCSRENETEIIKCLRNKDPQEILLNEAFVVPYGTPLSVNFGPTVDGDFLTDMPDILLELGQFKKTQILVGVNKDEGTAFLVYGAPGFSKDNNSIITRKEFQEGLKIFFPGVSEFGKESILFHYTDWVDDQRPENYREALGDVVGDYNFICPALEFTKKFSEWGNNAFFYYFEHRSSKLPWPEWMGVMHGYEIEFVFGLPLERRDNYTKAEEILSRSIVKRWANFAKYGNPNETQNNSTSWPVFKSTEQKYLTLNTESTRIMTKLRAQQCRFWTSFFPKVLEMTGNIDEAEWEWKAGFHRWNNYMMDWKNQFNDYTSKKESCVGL

B1: mouse anti-human BChE monoclonal antibody 11D8 (antibody, V domains shown)
VH: QVQLQQSGAELARPGASVKLSCKASGYTFTSQWLQWVKQRPGQGLEWIGAIYPGDGDTRYTQKFKGKATLTADKSSSTAYMQLTNLAPEDSAVYYCARSSMDYWGQGTSVTVSS
VL: DILLTQSPAILSVSPGERVRLSCRASQSCGTSIYWYQQRTNGSPRLLIMYASEPFSGIPSRFSGSGSGTDFTLSINSVESEDIADYYCQQSNSWPWTFGGGTRLEIK
B1: the binding result was “binds”.

B2: mouse anti-human BChE monoclonal antibody B2 12-1 (antibody, V domains shown)
VH: EVQLQQSGPELVKPGASVKISCKASGYTFTDYSMHWVKLSHGKSLEWIGYIYPYNDDTDYNQKFKTKATLTVDSSSSITYLELRSLTSEDSAVYYCARSDGYSYYFDYWGQGTTLTVSS
VL: DIVMTQSPATLSVTPGDRVSLSCRASQSISDYLHWYQQKSHESPRLLIKYASQSISGIPSRFSGGGSGSDFTLSINSVEPEDVGVYYCQNGHRFPLTFGAGTKLELK
Consider B2, for which the binding result is given as “binds”.
